# Assay results: IntAct's records for PubMed 23288039
# B1: Serine/threonine-protein kinase Nek2 (Homo sapiens), P51955 (parent)
# chain: MPSRAEDYEVLYTIGTGSYGRCQKIRRKSDGKILVWKELDYGSMTEAEKQMLVSEVNLLRELKHPNIVRYYDRIIDRTNTTLYIVMEYCEGGDLASVITKGTKERQYLDEEFVLRVMTQLTLALKECHRRSDGGHTVLHRDLKPANVFLDGKQNVKLGDFGLARILNHDTSFAKTFVGTPYYMSPEQMNRMSYNEKSDIWSLGCLLYELCALMPPFTAFSQKELAGKIREGKFRRIPYRYSDELNEIITRMLNLKDYHRPSVEEILENPLIADLVADEQRRNLERRGRQLGEPEKSQDSSPVLSELKLKEIQLQERERALKAREERLEQKEQELCVRERLAEDKLARAENLLKNYSLLKERKFLSLASNPELLNLPSSVIKKKVHFSGESKENIMRSENSESQLTSKSKCKDLKKRLHAAQLRAQALSDIEKNYQLKSRQILGMR
# Variants of: B1
# Conditions: with apc4_human ANAPC4, Q9UJX5
# apc4_human ANAPC4, Q9UJX5, sequence (Q9UJX5 whole entry): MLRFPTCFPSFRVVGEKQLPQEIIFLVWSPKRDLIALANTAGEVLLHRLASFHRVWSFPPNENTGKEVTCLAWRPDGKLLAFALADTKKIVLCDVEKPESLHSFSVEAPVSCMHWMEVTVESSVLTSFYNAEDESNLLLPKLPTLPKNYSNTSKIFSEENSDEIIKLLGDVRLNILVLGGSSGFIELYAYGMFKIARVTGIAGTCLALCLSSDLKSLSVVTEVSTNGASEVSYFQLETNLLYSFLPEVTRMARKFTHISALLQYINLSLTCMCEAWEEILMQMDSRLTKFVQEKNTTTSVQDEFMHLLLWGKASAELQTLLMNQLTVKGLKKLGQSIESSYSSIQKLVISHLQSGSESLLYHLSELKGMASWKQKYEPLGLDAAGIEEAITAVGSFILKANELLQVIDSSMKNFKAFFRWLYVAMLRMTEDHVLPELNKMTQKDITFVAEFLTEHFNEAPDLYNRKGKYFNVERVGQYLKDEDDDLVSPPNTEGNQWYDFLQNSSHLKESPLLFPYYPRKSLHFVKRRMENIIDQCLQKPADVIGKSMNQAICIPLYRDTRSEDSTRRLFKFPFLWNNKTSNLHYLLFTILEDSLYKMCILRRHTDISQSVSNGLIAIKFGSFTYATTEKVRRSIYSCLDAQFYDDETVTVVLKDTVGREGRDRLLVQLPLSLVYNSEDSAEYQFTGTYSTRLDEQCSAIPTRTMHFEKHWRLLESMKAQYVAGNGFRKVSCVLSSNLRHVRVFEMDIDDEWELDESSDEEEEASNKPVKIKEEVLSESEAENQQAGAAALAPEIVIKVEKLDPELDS
row,effect of a mutation on the interaction,Variant
1,decreasing interaction,MPSRAEDYEVLYTIGTGSYGRCQKIRRKSDGKILVWKELDYGSMTEAEKQMLVSEVNLLRELKHPNIVRYYDRIIDRTNTTLYIVMEYCEGGDLASVITKGTKERQYLDEEFVLRVMTQLTLALKECHRRSDGGHTVLHRDLKPANVFLDGKQNVKLGDFGLARILNHDTSFAKTFVGTPYYMSPEQMNRMSYNEKSDIWSLGCLLYELCALMPPFTAFSQKELAGKIREGKFRRIPYRYSDELNEIITRMLNLKDYHRPSVEEILENPLIADLVADEQRRNLERRGRQLGEPEKSQDSSPVLSELKLKEIQLQERERAAKAREERLEQKEQELCVRERLAEDKLARAENLLKNYSLLKERKFLSLASNPELLNLPSSVIKKKVHFSGESKENIMRSENSESQLTSKSKCKDLKKRLHAAQLRAQALSDIEKNYQLKSRQILGMR [L320A]
2,decreasing interaction,MPSRAEDYEVLYTIGTGSYGRCQKIRRKSDGKILVWKELDYGSMTEAEKQMLVSEVNLLRELKHPNIVRYYDRIIDRTNTTLYIVMEYCEGGDLASVITKGTKERQYLDEEFVLRVMTQLTLALKECHRRSDGGHTVLHRDLKPANVFLDGKQNVKLGDFGLARILNHDTSFAKTFVGTPYYMSPEQMNRMSYNEKSDIWSLGCLLYELCALMPPFTAFSQKELAGKIREGKFRRIPYRYSDELNEIITRMLNLKDYHRPSVEEILENPLIADLVADEQRRNLERRGRQLGEPEKSQDSSPVLSELKLKEIQAQERERALKAREERLEQKEQELCVRERLAEDKLARAENLLKNYSLLKERKFLSLASNPELLNLPSSVIKKKVHFSGESKENIMRSENSESQLTSKSKCKDLKKRLHAAQLRAQALSDIEKNYQLKSRQILGMR [L313A]
